Columns and labels:
Assay in all cases: two-hybrid
[1] = molecular target: SUD2-N (K412 to E548 of SARS-CoV-2 Nsp3), two-hybrid bait (SARS-CoV-2)
[2] = molecular target: SUD2-M (I549 to S675 of SARS-CoV-2 Nsp3), two-hybrid bait (SARS-CoV-2)
[3] = molecular target: BD-SUD2_(core) (SUD2-N+M, K412 to S675 of SARS-CoV-2 Nsp3, fused to the DNA binding domain) (SARS-CoV-2)

Row | Substance | LacZ reporter activity compared with SUD2-N+M [1] [%] | LacZ reporter activity compared with SUD2-N+M [2] [%] | fold LacZ reporter induction against full-length SUD2 [3] [fold]
1 | AD-Nsp5 (Nsp5 of SARS-CoV-2 fused to the activation domain) (from UniProt P0DTD1 3264-3569) (enzyme) | 47 | 86 | 
2 | AD-Nsp5 (Nsp5 of SARS-CoV-2 fused to the activation domain) (from UniProt P0DTD1 3264-3569) |  |  | 2.1

Reference: publication PMC10127692
